Reference: paper PMC12680543

Tests used:
[1] = biological target: KSS-1::Strep (C. tropicalis); assay: SEC-MALS; KSS-1::Strep–SKR-1 complex co-expressed in Sf9 and co-purified (StrepTrapXT ATP/Mg wash fraction, ResourceQ, Superdex 200 Increase 10/300 GL); 20 mM Tris pH 7.5, 150 mM NaCl; right-angle static light scattering

| stoichiometry N [1] | Substance | half-life of KLMT-1::mNG (fluorescence time lapse of embryos) in kss-1(−) against kss-1(+) (KLMT-1 (C. tropicalis)) [fold] |
| --- | --- | --- |
| – | 3xFLAG::KSS-1 (natural protein) | 2.9 |
| 1 | SKR-1 (natural protein) | – |
